Reference: article PMC9320373, “Isolation and Characterization of Cell Envelope Fragments Comprising Archaeal S-Layer Proteins” (Nanomaterials, 2022)

Molecular target: the molecule itself
Experiment: negative-stain transmission electron microscopy with 2D image reconstruction; SlaA-enriched sacculi (lipids and SlaB removed by SDS washes) sonicated to fragments, on glow discharged grid, 2% uranyl acetate; Fourier domain processing; p3 hexagonal lattice

B1: S-layer large protein (SlaA) from Saccharolobus solfataricus P2 (natural protein, UniProt Q980C7 36-1231, looked up)
chain: AAIYTIPSVTSVSNTSNIVINLFFNATSNSTVGAQASAFNYGLAINYTLDAITFTVVLPSGTSYPLIKLNAKNFANYGYYDLAHNSIVLLLNTTASSTAKELAYSYEQSIGVTPSASYKIYNYTNKTVNVNQYMNELPLSMLIYMATNGKYNNLASLPVGTKLEFTYAGVTYIIAVSPTVKLVGELLNPLYTANSKMLPGTNYAVGRSNITVAVYDNLITTTTSPFNFTLTYSSLAPALIYWFVIANTTYTNNGASTPTASFQAPPFKQYFPSNSTILYSAAPTKSSILMFNGQMNVTAHENVTLTLQTGTNIYTSPNFNVTPPGNYTFSGKLGVGFNGFIYQNGSATLTATIFNGTINFFFSSTGQKAAFTFFLVPIVPINLGDNNGATVIYNGVSLNTGFPQVVVMFNITGNFTKSGSNYLLYGSVYEAELKPLGSTQLQKLAGATDSTQFVGNLISSASSPLVSYFNYGESTTTITGTSLSFTVLMPLKFIVERLGYIYLVTFHIWGPSATVTVTGVDYHGTQIALGSFRAYVALPSFYTLPKTPLVGLTCDNMYTLAQVSDAGSVLETSTANSNANNATVIGPYDLMSNAGLHVAIYNGSKLVKSGNLGLLPNATTAPITTTITLNGQTVALTYSSAPTAIYPVDFKFEPGFSYSVTTNVIYNTSIPTYVVTVYMPLKYILQTKIVMWYVSPDYAAYFYYSSTGQYQTSNVTLTFANVTPELVMPQVFPVGKLYMPFGINDPYYVFYSSISIGPQSGVIEAVENGFNVGNITSITVELNGMNESIVLSPLNVSKLLISSNLGEVSQCSPLFTTTLFNISALASLLGLPNAAALNGSYLYVTYHDIISGAYVTNRTLLVVGQFYVMPPTTPGSVEWILTAKYINATTGIPVEISYAVVQQPSAKVVDINAANASITQIQVTGVKIVSKYATVTVMYNPSNASTIVYMNGMFVASYGGNLISSLSETSTFGVYYGAVVNLYVATGTLSSPNGTMYVVLGSHKVAVGTANLYTYAGYHFGPYTALPLVSNVTFTVQDPVTHATLTGQTTLGAFNNTPIRLAPLGVSIPQTAQYKVFYYYSTPLVLSPTSQYIVLSVTSVISYPYPFYIETVSFLGYNVTTGTPVPGTPAFQTVYSPSLGPGVVLQVPVQSYQFISLSTPSEPHTVVMFAVPFAGGPAISLYPTFLVYANVTAISS
modifications: glycosylated (sites not given)
notes: SlaA, S-layer large protein of Saccharolobus solfataricus P2; UniProt KB entry Q980C7; Mr 131 kDa as printed; Native protein isolated as an assembled S-layer lattice (sacculi and fragments), not as soluble monomers; also called surface layer large protein; SSO sacculi; source: endogenous, Saccharolobus solfataricus P2; sacculi extracted with sodium lauroylsarcosine and sonication (SEG), washed …
- binding result: binds
